Reference: publication PMC9482650, “Quantitative fragmentomics allow affinity mapping of interactomes” (Nature Communications, 2022)

Experiments:
Test in all cases: holdup assay
Design in all cases: key: below the threshold = too weak to quantify, mostly under pKd 3.1 to 4
[1] = molecular target: NHERF4_2, Q86UT5
[2] = molecular target: GRIP2_7, Q9C0E4
[3] = molecular target: PARD3_3, Q8TEW0
[4] = molecular target: T1, DLG3_3, Q92796
T1 sequence (Q92796 374-475, limits assumed, looked up): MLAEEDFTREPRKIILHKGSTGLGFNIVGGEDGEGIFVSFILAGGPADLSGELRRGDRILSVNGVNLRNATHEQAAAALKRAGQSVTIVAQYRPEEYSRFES

[5] = molecular target: T2, GRIP1_4, Q9Y3R0
T2 sequence (Q9Y3R0 467-571, limits assumed, looked up): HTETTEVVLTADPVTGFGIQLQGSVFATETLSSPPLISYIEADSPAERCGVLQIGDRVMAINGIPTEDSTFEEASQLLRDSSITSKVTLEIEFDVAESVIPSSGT

[6] = molecular target: T3, LIN7B, Q9HAP6
T3 sequence (Q9HAP6 88-185, limits assumed, looked up): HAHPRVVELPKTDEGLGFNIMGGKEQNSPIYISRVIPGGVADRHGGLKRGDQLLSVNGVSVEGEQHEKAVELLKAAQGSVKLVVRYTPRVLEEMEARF

[7] = molecular target: T4, MPDZ_12, O75970
T4 sequence (O75970 1857-1958, limits assumed, looked up): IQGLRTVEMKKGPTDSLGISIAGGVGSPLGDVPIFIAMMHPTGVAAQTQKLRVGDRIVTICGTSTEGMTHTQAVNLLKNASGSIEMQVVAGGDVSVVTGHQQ

[8] = molecular target: T5, MPP2, Q14168
T5 sequence (Q14168 180-250, limits assumed, looked up): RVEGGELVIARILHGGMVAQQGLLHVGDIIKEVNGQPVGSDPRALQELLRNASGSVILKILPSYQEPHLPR

[9] = molecular target: MAGI2_4, Q86UL8
MAGI2_4, Q86UL8, sequence (Q86UL8 772-865): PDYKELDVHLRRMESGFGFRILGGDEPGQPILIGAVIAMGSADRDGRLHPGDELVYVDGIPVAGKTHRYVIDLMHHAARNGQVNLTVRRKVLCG

[10] = molecular target: NOS1, P29475
NOS1, P29475, sequence (P29475 9-101): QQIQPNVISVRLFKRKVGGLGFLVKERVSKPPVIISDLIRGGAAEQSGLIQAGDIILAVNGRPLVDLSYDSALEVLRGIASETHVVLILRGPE

[11] = molecular target: T6, GRIP1_7, Q9Y3R0
T6 sequence (Q9Y3R0 999-1096, limits assumed, looked up): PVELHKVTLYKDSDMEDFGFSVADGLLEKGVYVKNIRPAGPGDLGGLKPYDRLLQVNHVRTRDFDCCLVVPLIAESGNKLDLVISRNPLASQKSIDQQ

[12] = molecular target: FRMPD2_2, Q68DX3
FRMPD2_2, Q68DX3, sequence (Q68DX3 944-1038): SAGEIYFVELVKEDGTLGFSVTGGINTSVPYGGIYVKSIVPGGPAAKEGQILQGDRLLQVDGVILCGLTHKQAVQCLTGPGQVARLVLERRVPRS

[13] = molecular target: MAGI2_6, Q86UL8
MAGI2_6, Q86UL8, sequence (Q86UL8 1141-1229): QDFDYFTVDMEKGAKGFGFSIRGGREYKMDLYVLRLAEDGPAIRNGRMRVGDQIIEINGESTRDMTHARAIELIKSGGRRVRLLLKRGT

[14] = molecular target: T7, PDZD2_2, O15018
T7 sequence (O15018 329-429, limits assumed, looked up): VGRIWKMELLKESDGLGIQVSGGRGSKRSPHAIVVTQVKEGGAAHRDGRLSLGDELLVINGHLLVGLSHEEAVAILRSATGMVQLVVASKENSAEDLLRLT

[15] = molecular target: SCRIB_3, Q14160
SCRIB_3, Q14160, sequence (Q14160 999-1103): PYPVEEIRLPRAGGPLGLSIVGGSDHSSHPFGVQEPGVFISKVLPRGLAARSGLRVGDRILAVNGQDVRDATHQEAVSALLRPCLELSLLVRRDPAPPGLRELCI

[16] = molecular target: DLG4_2, P78352
DLG4_2, P78352, sequence (P78352 155-259): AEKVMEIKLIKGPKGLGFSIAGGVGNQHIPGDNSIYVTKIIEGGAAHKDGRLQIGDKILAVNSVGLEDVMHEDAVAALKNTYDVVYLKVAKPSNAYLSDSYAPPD

[17] = molecular target: FRMPD2_1, Q68DX3
FRMPD2_1, Q68DX3, sequence (Q68DX3 770-861): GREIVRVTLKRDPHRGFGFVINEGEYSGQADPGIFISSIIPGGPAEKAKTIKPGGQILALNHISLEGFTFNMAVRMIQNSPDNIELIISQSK

[18] = molecular target: GRID2IP_2, A4D2P6
GRID2IP_2, A4D2P6, sequence (A4D2P6 272-370): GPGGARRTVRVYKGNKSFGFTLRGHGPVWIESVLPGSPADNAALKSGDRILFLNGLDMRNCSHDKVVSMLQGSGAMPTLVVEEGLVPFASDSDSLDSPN

[19] = molecular target: T8, SNTG2, Q9NY99
T8 sequence (Q9NY99 68-166, limits assumed, looked up): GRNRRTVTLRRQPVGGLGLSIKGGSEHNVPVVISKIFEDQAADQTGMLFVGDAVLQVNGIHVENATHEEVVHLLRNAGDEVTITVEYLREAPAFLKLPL

[20] = molecular target: LNX1_3, Q8TBB1
LNX1_3, Q8TBB1, sequence (Q8TBB1 500-596): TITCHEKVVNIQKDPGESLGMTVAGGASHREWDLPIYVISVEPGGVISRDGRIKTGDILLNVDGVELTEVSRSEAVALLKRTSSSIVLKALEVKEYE

[21] = molecular target: DLG1_2, Q12959
DLG1_2, Q12959, sequence (Q12959 314-412): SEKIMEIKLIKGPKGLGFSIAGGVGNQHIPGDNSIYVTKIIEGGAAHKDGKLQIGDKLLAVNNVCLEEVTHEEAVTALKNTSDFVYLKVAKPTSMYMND

[22] = molecular target: T9, APBA1_2, Q02410
T9 sequence (Q02410 742-832, limits assumed, looked up): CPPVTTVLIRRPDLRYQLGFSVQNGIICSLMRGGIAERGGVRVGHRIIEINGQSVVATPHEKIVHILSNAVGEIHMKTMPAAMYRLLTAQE

[23] = molecular target: FRMPD4, Q14CM0
FRMPD4, Q14CM0, sequence (Q14CM0 67-160): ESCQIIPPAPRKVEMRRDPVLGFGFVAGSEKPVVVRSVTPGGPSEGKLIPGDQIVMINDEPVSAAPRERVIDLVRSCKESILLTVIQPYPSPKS

[24] = molecular target: AHNAK1, Q09666
AHNAK1, Q09666, sequence (Q09666 4-100): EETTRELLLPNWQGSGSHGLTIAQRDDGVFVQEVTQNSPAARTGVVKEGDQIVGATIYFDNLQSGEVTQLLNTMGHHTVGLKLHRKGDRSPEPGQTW

[25] = molecular target: LIMK2, P53671
LIMK2, P53671, sequence (P53671 143-248): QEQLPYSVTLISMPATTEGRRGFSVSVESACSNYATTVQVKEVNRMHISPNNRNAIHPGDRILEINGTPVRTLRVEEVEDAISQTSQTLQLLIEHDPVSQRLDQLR

[26] = molecular target: T10, PTPN13_1, Q12923
T10 sequence (Q12923 1088-1188, limits assumed, looked up): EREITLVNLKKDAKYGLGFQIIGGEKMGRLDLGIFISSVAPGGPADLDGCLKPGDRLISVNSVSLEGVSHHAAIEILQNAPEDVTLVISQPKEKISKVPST

[27] = molecular target: T11, NHERF3_4, Q5T2W1
T11 sequence (Q5T2W1 373-468, limits assumed, looked up): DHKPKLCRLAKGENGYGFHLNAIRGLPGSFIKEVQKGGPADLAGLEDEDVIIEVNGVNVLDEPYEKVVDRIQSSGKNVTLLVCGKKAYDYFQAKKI

[28] = plain residues with an end cap or a label only (N-terminal biotin on a linker: ttds)
[29] = plain residues with an end cap or a label only (N-terminal biotin on a linker: ahx)

NHERF4_2, Q86UT5, sequence (Q86UT5 220-308): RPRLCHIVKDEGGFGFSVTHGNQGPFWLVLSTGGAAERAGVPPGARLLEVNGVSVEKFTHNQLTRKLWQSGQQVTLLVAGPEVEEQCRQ
GRIP2_7, Q9C0E4, sequence (Q9C0E4 934-1023): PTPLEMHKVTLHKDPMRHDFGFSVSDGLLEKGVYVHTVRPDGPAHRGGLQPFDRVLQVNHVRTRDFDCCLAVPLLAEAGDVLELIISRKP
PARD3_3, Q8TEW0, sequence (Q8TEW0 582-685): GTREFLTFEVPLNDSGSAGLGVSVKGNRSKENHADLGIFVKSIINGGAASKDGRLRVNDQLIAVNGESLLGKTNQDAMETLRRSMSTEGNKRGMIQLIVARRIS

NQLAWFDTDL [CTNNB1, P35222]
pKd [1, 28]: below the threshold
pKd [2, 28]: below the threshold
pKd [3, 28]: below the threshold
pKd [4, 28]: below the threshold
pKd [5, 28]: below the threshold
pKd [6, 28]: below the threshold
pKd [7, 28]: below the threshold
pKd [8, 28]: below the threshold
pKd [9, 28]: below the threshold
pKd [10, 28]: below the threshold
pKd [11, 28]: 3.63
pKd [12, 28]: below the threshold
pKd [13, 28]: 5.15
pKd [14, 28]: below the threshold
pKd [15, 28]: 4.82
pKd [16, 28]: below the threshold
pKd [17, 28]: below the threshold
pKd [18, 28]: below the threshold
pKd [19, 28]: below the threshold
pKd [20, 28]: below the threshold
pKd [21, 28]: below the threshold
pKd [22, 28]: below the threshold
pKd [23, 28]: 4.28
pKd [24, 28]: below the threshold
pKd [25, 28]: below the threshold
pKd [26, 28]: below the threshold
pKd [27, 28]: below the threshold

GIFPTLTSPL [SHROOM3, Q8TF72]
pKd [1, 29]: below the threshold
pKd [2, 29]: below the threshold
pKd [3, 29]: below the threshold
pKd [4, 29]: below the threshold
pKd [5, 29]: below the threshold
pKd [6, 29]: below the threshold
pKd [7, 29]: below the threshold
pKd [8, 29]: below the threshold
pKd [9, 29]: below the threshold
pKd [10, 29]: below the threshold
pKd [11, 29]: below the threshold
pKd [12, 29]: below the threshold
pKd [13, 29]: below the threshold
pKd [14, 29]: 3.48
pKd [15, 29]: below the threshold
pKd [16, 29]: below the threshold
pKd [17, 29]: below the threshold
pKd [18, 29]: below the threshold
pKd [19, 29]: below the threshold
pKd [20, 29]: below the threshold
pKd [21, 29]: below the threshold
pKd [22, 29]: below the threshold
pKd [23, 29]: below the threshold
pKd [24, 29]: below the threshold
pKd [25, 29]: below the threshold
pKd [26, 29]: below the threshold
pKd [27, 29]: 3.95
